From patent US11278600B2, “Human alpha-galactosidase variants” (Codexis, Inc., priority 2014, dated 2022) come the findings set out here.

The labels stand for the following.
B1: 522 (protein)
chain: LDNGLARTPTMGWLHWERFMCNLDCQEEPDSCISEKLFMEMAERMVSEGWKDAGYKYLCIDDCWMAPQRDSEGRLQADPQRFPHGIRQLANHVHSKGLKLGIYADVGNKTCAGFPGSFGYYDIDAQTFADWGVDLLKFDGCYCDSLENLADGYKHMSLALNRTGRSIVYSCEWPLYMWPFQKPNYTEIRQYCNHWRNFADIDDSWASIKSILDWTSRNQERIVDVAGPGGWNDPDMLVIGNFGLSWDQQVTQMALWAIMAAPLFMSNDLRHISPQAKALLQDKDVIAINQDPLGKQGYQLRKGDNFEVWERPLSGDAWAVAIINRQEIGGPRSYTIPVASLGKGVACNPACFITQLLPVKRQLGFYNWTSRLKSHINPTGTVLLQLENTMQMSLKDLL
modifications: Synthetic Polypeptide sequence of Variant No. 522 of mature Human GLA
B2: 605 (protein)
chain: B1 chain with T10P, K56E
modifications: Synthetic Polypeptide sequence of Variant No. 605 of mature Human GLA
B3: 604 (protein)
chain: B1 chain with M39V, K56E
modifications: Synthetic Polypeptide sequence of Variant No. 604 of mature Human GLA
B4: 607 (protein)
chain: B1 chain with T8L, K56E
modifications: Synthetic Polypeptide sequence of Variant No. 607 of mature Human GLA
B5: 608 (protein)
chain: B1 chain with T8Q, K56E
modifications: Synthetic Polypeptide sequence of Variant No. 608 of mature Human GLA
B6: 606 (protein)
chain: B1 chain with T10P, K56E, R189L
modifications: Synthetic Polypeptide sequence of Variant No. 606 of mature Human GLA

Changes are numbered by the printed parent chain.

The nature of the first series: HTP-analysis of supernatants pretreated with acid (MUGal hydrolysis). The format is biochemical. The conditions noted are these: activity of the variant/activity of Rd3BB (SEQ ID NO: 13); challenge at pH 3.7. In a few lines: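 Fluorescence of MUGal hydrolysis (Ex. 355 nm, Em. 448 nm) is read after sodium carbonate quench. The enzyme source is INVSc1 yeast culture supernatant, first exposed to pH 3.3-4.3 McIlvaine buffer at 37° C. for 1-3 h, then reacted at pH 4.8 for 30-180 minutes.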
For B1, the “Relative Activity of GLA Variants After Challenge at pH 3.7” value (“Relative Activity … at pH 3.7” for short) is “+++ (+++ = >10 relative activity over Rd3BB (SEQ ID NO: 13))”.
Take B2: the “Relative Activity … at pH 3.7” value is given as “+++ (+++ = >10 relative activity over Rd3BB (SEQ ID NO: 13))”.
The same measure, in the same setting: in the case of B3 it was “+ (+ = 1.5 to 5 relative activity over Rd3BB (SEQ ID NO: 13))”; in that of B4, “+ (+ = 1.5 to 5 relative activity over Rd3BB (SEQ ID NO: 13))”.
Take B5: the “Relative Activity … at pH 3.7” value was “+ (+ = 1.5 to 5 relative activity over Rd3BB (SEQ ID NO: 13))”.
For B6, the “Relative Activity … at pH 3.7” value is “+++ (+++ = >10 relative activity over Rd3BB (SEQ ID NO: 13))”.

Another series can be described thus: HTP-analysis of supernatants pretreated with base (MUGal hydrolysis). The class given is biochemical. The conditions noted are these: activity of the variant/activity of Rd3BB (SEQ ID NO: 13); challenge at pH 9.7. In a few lines:
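Fluorescence of released 4-MU (Ex 355 nm, Em 448 nm) after carbonate quench reports MUGal hydrolysis by GLA variants secreted from INVSc1 yeast. Before the acidic (pH 4.3-4.8) 30-180 min reaction at 37° C, supernatants had been pre-incubated at pH 7.0-9.7 for 1-18 h at 37° C.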
Take B1: the “Relative Activity of GLA Variants After Challenge at pH 9.7” value (shortened to “Relative Activity … at pH 9.7”) is “++ (++ = >5 to 10 relative activity over Rd3BB (SEQ ID NO: 13))”.
Same read-out and setting: in the case of B2 it was “++ (++ = >5 to 10 relative activity over Rd3BB (SEQ ID NO: 13))”.
In the case of B3, the “Relative Activity … at pH 9.7” value is “++ (++ = >5 to 10 relative activity over Rd3BB (SEQ ID NO: 13))”.
On to B4, for which the “Relative Activity … at pH 9.7” value was “++ (++ = >5 to 10 relative activity over Rd3BB (SEQ ID NO: 13))”.
On to B5, for which the “Relative Activity … at pH 9.7” value is recorded as “+ (+ = 1.5 to 5 relative activity over Rd3BB (SEQ ID NO: 13))”.
The same measure, in the same setting: the value for B6 was “++ (++ = >5 to 10 relative activity over Rd3BB (SEQ ID NO: 13))”.

A short description of another series: HTP-analysis of yeast culture supernatants, no challenge (MUGal hydrolysis). The class given is biochemical. The conditions noted are these: activity of the variant/activity of Rd3BB (SEQ ID NO: 13). In a few lines:
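GLA variants were expressed in INVSc1 yeast grown in SD-Ura broth with glucose at 30° C., and culture supernatants were collected after 66-84 h. Supernatant was mixed with McIlvaine buffer pH 4.8 and MUGal (2 mM stock) in 50 mM citrate, 200 mM KCl, pH 4.6, incubated at 37° C. for 30-180 minutes, then quenched with sodium carbonate.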
B1: the “Relative Activity of GLA Variants After No Challenge (NC)” value is “+ (+ = 1.5 to 5 relative activity over Rd3BB (SEQ ID NO: 13))”.
The same measure, in the same setting: in the case of B2 it was “+ (+ = 1.5 to 5 relative activity over Rd3BB (SEQ ID NO: 13))”; in that of B3, “+ (+ = 1.5 to 5 relative activity over Rd3BB (SEQ ID NO: 13))”; in that of B4, “+ (+ = 1.5 to 5 relative activity over Rd3BB (SEQ ID NO: 13))”.
Consider B5, for which the “Relative Activity of GLA Variants After No Challenge (NC)” value is recorded as “+ (+ = 1.5 to 5 relative activity over Rd3BB (SEQ ID NO: 13))”.
The same measure, in the same setting: the value for B6 was “+ (+ = 1.5 to 5 relative activity over Rd3BB (SEQ ID NO: 13))”.
